Laboratory results published in patent US20060121042A1 (AstraZeneca / MedImmune, published 2006).
Positions count from the first letter of the chain named. Blank lines part the entries; values can stand above or below the binder they belong to.

How the values were obtained:
hEphA2 = target: T1, hEphA2 (human, UniProt P29317); test: ELISA
T1 construct: also called human EphA2

r murine EphA4 [1] = target: T2, r murine EphA4 (mouse, UniProt Q03137); test: activity ELISA, Fab on coated antigen
T2 construct: recombinant Fc fusion (R&D Systems); also called rmuEphA4-Fc; mEphA4
T2 sequence (Q03137 20-547 limits assumed): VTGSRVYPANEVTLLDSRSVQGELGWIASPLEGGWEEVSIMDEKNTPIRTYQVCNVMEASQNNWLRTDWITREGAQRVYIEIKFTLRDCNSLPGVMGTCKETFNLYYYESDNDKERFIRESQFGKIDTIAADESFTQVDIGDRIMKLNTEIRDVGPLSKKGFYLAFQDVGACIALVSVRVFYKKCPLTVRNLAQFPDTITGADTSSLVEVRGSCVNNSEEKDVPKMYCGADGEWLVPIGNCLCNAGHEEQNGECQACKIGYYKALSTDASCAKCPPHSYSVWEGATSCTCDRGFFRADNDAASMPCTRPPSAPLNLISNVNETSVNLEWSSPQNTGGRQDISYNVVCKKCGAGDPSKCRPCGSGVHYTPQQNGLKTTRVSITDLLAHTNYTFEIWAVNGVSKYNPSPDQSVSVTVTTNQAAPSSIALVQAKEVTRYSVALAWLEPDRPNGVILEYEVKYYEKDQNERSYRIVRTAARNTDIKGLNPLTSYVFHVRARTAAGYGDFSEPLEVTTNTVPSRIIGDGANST
Description: (§1) More precisely, Nunc Maxisorp plates were coated with the following rEphA proteins: rhuEphAl-Fc, rmuEphA2-Fc, rmuEphA3-Fc, rmuEphA4-Fc, rratEphA5-Fc, rmuEphA6-Fc, rmuEphA7-Fc, rEphA8; all at 0.5 μg/well (all R&D Systems) rhuEphA2-Fc; 0.5 μg/well, and rhuEphA4-His; 0.1 μg/well (both produced at MedImmune, Inc.). Plates were blocked with 3% BSA+0.1% Tween20 for 2 h. […] Incubation with a goat anti-human kappa horseradish peroxydase (HRP) conjugate then followed. HRP activity was detected with TMB substrate and the reaction quenched with 0.2 M H₂SO₄. Plates were read at 450 nm. Data was analyzed by normalizing Fab concentrations to the corresponding activity data (see FIGS. 10B-10H).

r murine EphA7 [2] = target: T3, r murine EphA7 (mouse, UniProt Q61772); test: activity ELISA, Fab on coated antigen
T3 construct: recombinant Fc fusion (R&D Systems); also called rmuEphA7-Fc; mEphA7
T3 sequence (receptor-Fc fusion, looked up): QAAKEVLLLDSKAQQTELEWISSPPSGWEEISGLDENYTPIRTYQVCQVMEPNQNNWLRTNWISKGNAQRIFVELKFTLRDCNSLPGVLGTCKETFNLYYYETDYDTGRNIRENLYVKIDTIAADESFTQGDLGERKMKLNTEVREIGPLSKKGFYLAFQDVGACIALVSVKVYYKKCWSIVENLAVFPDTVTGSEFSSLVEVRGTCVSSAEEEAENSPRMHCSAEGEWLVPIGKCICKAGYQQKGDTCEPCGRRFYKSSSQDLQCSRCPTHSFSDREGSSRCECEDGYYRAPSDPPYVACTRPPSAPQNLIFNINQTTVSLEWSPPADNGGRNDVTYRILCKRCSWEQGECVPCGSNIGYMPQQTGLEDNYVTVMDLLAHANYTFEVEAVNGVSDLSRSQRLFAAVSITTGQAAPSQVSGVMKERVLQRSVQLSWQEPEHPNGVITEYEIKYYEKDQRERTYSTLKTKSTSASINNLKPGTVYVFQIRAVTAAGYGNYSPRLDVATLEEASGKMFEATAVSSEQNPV
Description: as §1

r murine EphA3 [3] = target: T4, r murine EphA3 (mouse, UniProt P29319); test: activity ELISA, Fab on coated antigen
T4 construct: recombinant Fc fusion (R&D Systems); also called rmuEphA3-Fc; mEphA3
T4 sequence (receptor-Fc fusion, looked up): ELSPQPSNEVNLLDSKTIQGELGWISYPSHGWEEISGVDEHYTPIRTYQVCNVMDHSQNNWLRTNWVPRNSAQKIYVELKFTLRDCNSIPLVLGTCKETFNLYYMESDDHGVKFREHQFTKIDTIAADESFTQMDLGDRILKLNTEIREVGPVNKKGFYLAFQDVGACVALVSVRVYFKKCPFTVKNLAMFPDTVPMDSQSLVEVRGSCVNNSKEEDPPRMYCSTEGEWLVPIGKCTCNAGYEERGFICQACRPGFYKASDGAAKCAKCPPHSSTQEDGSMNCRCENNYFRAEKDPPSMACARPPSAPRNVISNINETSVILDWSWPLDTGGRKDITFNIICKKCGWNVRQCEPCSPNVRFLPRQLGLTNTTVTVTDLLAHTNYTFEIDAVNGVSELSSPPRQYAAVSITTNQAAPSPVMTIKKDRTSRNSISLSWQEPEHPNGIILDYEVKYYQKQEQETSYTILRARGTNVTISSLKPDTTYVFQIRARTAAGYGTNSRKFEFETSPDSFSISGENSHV
Description: as §1

r murine EphA4 [4] = target: T2, r murine EphA4; test: activity ELISA, IgG on coated antigen
Description: (§2) Secondary screening of IgG constructs of affinity optimized combinatorial variants with additional EphA receptors: With purified IgG constructs of the nine combinatorial variants, additional secondary screening assays were performed using the Activity ELISA (see above) and recombinant EphA receptor proteins. More precisely, Nunc Maxisorp plates were coated with the following rEphA proteins: rhuEphAl-Fc; 0.5 μg/well, rmuEphA2-Fc; 0.5 μg/well, rmuEphA3-Fc: 0.1 μg/well, rmuEphA4-Fc; 0.1 μg/well, rratEphA5-Fc; 0.5 μg/well, rmuEphA6-Fc; 0.5 μg/well, rmuEphA7-Fc; 0.1 μg/well, rEphA8; 0.2 μg/well (all R&D Systems), rhuEphA2-Fc; 0.5 μg/well, and rhuEphA4-His; 0.1 μg/well (both produced at MedImmune, Inc.). Plates were blocked with 3% BSA+0.1% Tween20 for 2 h. […] Incubation with a goat anti-human kappa horseradish peroxydase (HRP) conjugate then followed. HRP activity was detected with TMB substrate and the reaction quenched with 0.2 M H₂SO₄. Plates were read at 450 nm. Data was analyzed by normalizing Fab concentrations to the corresponding activity data (see FIGS. 12A-12J and 14).

r murine EphA7 [5] = target: T3, r murine EphA7; test: activity ELISA, IgG on coated antigen
Description: as §2

[6] = target: T5, Human EphA4-His fusion protein (human, UniProt P54764 20-547); test: BIAcore, IgG immobilized on the sensor chip, EphA4-his as analyte
T5 construct: also called rhuEphA4-His; not shown: Histidine tag
T5 sequence (P54764 20-547): as the sequence (Q03137 20-547 limits assumed) above, with A59P, S121N, G124V, Q250R, N251S, S270T, R378K, S406N counted along it
Description: (§3) FIG. 15A-15B. […] Binding affinities were measured using the BIAcore assay. […] Variant kinetic measurements for human EphA4 and were obtained using BIAcore with immobilized variant antibodies and human EphA4-Fc and EphA4-His as analytes.

mEphA4 = target: T6, mEphA4 (mouse, UniProt Q03137); test: ELISA, receptor coated on the plate, purified IgG, anti-human kappa-HRP
T6 construct: part of an Fc fusion; also called rmuEphA4-Fc
T6 sequence (Q03137 20-547 limits assumed): as the sequence (Q03137 20-547 limits assumed) above
Description: as §2

mEphA7 = target: T7, mEphA7 (mouse, UniProt Q61772); test: as above
T7 construct: part of an Fc fusion; also called rmuEphA7-Fc
T7 sequence (receptor-Fc fusion, looked up): T3 sequence (receptor-Fc fusion, looked up)
Description: as §2

[7] = target: T8, Human EphA4-Fc fusion protein (human, UniProt P54764 20-547); test: BIAcore, IgG immobilized on the sensor chip, EphA4-Fc as analyte
T8 construct: not shown: Fc portion of a human IgG1
T8 sequence (P54764 20-547): as the sequence (Q03137 20-547 limits assumed) above, with A59P, S121N, G124V, Q250R, N251S, S270T, R378K, S406N counted along it
Description: as §3

r murine EphA3 [8] = target: T4, r murine EphA3; test: activity ELISA, IgG on coated antigen
Description: as §2

mEphA3 = target: T9, mEphA3 (mouse, UniProt P29319); test: ELISA, receptor coated on the plate, purified IgG, anti-human kappa-HRP
T9 construct: part of an Fc fusion; also called rmuEphA3-Fc
T9 sequence (receptor-Fc fusion, looked up): T4 sequence (receptor-Fc fusion, looked up)
Description: as §2

T1 sequence (P29317 25-534 limits assumed): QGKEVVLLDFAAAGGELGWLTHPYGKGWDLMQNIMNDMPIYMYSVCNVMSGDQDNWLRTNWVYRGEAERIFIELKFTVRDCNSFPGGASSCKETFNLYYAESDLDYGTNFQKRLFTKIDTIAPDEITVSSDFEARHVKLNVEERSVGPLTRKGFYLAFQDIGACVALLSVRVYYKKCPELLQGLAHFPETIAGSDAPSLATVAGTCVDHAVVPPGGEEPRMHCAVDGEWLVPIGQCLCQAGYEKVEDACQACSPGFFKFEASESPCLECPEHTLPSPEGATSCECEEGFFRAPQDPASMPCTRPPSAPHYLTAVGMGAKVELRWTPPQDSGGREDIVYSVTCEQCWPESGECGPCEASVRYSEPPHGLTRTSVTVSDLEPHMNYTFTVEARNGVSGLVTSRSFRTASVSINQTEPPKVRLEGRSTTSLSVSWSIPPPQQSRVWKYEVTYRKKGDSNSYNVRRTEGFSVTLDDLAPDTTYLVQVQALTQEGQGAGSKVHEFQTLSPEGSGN

ELISA O.D. value (hEphA2): 0.724
B1: 4H5 (antibody, V domains shown)
VH: QVQLLESGGGLVQPGGSLRLSCAASGFTFSSYTMSWVRQAPGQALEWMGTISSGGTYTYYPDSVKGRFTISRDNAKNSLYLQMNSLRAEDTAVYYCAREAIFTYWGRGTLVTVSS
VL: DIQLTQSPSSLSASVGDRVTITCKASQDINNYLSWYQQKPGQAPRLLIYRANRLVDGVPDRFSGSGYGTDFTLTINNIESEDAAYYFCLKYDVFPYTFGQGTKVEIK

ELISA O.D. value (hEphA2): 0.849
B2: 12G3H11 (antibody, V domains shown)
VH: QMQLVQSGPEVKKPGTSVKVSCKASGFTFDDYSMNWVRQARGQRLEWIGFIRNKANDYTTEYADSVKGRVTITRDMSTSTAYMELSSLRSEDTAVYYCARYPRHHAMDSWGQGTSVTVSS
VL: DIQMTQSPSSLSASVGDRVTITCRASQSISNNLHWYQQKPGKAPKLLIKYAFQSISGVPSRFSGSGSGTDFTFTISSLQPEDFATYYCQQANSWPLTFGGGTKVEIK

ELISA O.D. value (hEphA2): 0.131
B3: EA5 (antibody, V domains shown)
VH: EVQLQQSGPELVKTGASVKISCKASGYSFTGYYMHWVKQSHGKSLEWIGYISCYNGVTSYNQKFKGKATFTVDTSSSTAYMQFNSLTSEDSAVYYCARSHAMDYWGQGTSVTVSS
VL: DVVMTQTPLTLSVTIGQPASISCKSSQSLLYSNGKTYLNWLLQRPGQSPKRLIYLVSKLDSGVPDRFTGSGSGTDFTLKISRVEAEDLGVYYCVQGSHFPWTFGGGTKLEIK

binding result (r murine EphA4 [1]): binds | binding result (r murine EphA7 [2]): binds | binding result (r murine EphA3 [3]): binds
B4: 6B7 Fab (affinity optimized combinatorial variant of Fab20) (Fab, V domains shown)
VH: QVQLLQSGAEVKKPGASVKVPCKASGYTFTSRAMSWVRQAPGQGLEWMGWINTNTGNPTYAQGFTGRFVFSLDTSVSTAYLQISSLKAEDTAVYYCARVRFTVYGDGMDVWGQGTLVTVSS
VL: EIVLTQSPATLSVSPGERATLSCRASQSVSSNPAWYQQKPGQAPRLLIYGASTRATGIPDRFSASGSGTDFTLTISRVEPEDFAVYYCQQYGPSWTFGQGTKVEIK

binding result (r murine EphA4 [4]): binds | binding result (r murine EphA7 [5]): binds | Kd [6]: 8.8 nM | koff [6]: 0.000984 s⁻¹ | kon [6]: 112000 M⁻¹ s⁻¹ | binding result (mEphA4): binds | binding result (mEphA7): binds | Kd [7]: 0.176 nM | koff [7]: 6.15e-05 s⁻¹ | kon [7]: 350000 M⁻¹ s⁻¹
B5: 1D11 IgG1 (affinity optimized combinatorial variant of mAb GEA44 in human IgG1 format) (antibody, V domains shown)
VH: B4 VH with F101T, G107N
VL: B4 VL with P33L, A34P

binding result (r murine EphA4 [4]): binds | binding result (r murine EphA7 [5]): binds | binding result (r murine EphA3 [8]): binds | binding result (mEphA3): binds | binding result (mEphA4): binds | binding result (mEphA7): binds | Kd [7]: 0.059 nM | koff [7]: 1.01e-05 s⁻¹ | kon [7]: 172000 M⁻¹ s⁻¹
B6: 1G11 IgG1 (affinity optimized combinatorial variant of mAb GEA44 in human IgG1 format) (antibody, V domains shown)
VH: B4 VH
VL: B4 VL with P33L, A34P, A55P

binding result (r murine EphA4 [4]): binds | binding result (r murine EphA7 [5]): binds | binding result (r murine EphA3 [8]): binds | Kd [6]: 0.8 nM | koff [6]: 0.000345 s⁻¹ | kon [6]: 431000 M⁻¹ s⁻¹ | binding result (mEphA3): binds | binding result (mEphA4): binds | binding result (mEphA7): binds | Kd [7]: 0.037 nM | koff [7]: 2.87e-05 s⁻¹ | kon [7]: 769000 M⁻¹ s⁻¹
B7: 1A4 IgG1 (affinity optimized combinatorial variant of mAb GEA44 in human IgG1 format) (antibody, V domains shown)
VH: B4 VH with F64S
VL: B4 VL

binding result (r murine EphA4 [1]): binds | binding result (r murine EphA7 [2]): binds
B8: 1B10 Fab (affinity optimized combinatorial variant of Fab20) (Fab, V domains shown)
VH: B4 VH
VL: B4 VL with R54W

binding result (r murine EphA4 [1]): binds | binding result (r murine EphA7 [2]): binds
B9: 1D11 Fab (affinity optimized combinatorial variant of Fab20) (Fab, V domains shown)
VH: B4 VH with F101T, G107N
VL: B4 VL with P33L, A34P

binding result (r murine EphA4 [1]): binds | binding result (r murine EphA7 [2]): binds | binding result (r murine EphA3 [3]): binds
B10: 1G11 Fab (affinity optimized combinatorial variant of Fab20) (Fab, V domains shown)
VH: B4 VH
VL: B4 VL with P33L, A34P, A55P

binding result (r murine EphA4 [1]): binds | binding result (r murine EphA7 [2]): binds
B11: 3C6 Fab (affinity optimized combinatorial variant of Fab20) (Fab, V domains shown)
VH: B4 VH with F101L
VL: B4 VL with A34P, P93S

Kd [7]: 0.197 nM | koff [7]: 2.2e-05 s⁻¹ | kon [7]: 112000 M⁻¹ s⁻¹
B12: 8B4 IgG1 (affinity optimized combinatorial variant of mAb GEA44 in human IgG1 format) (antibody, V domains shown)
VH: B4 VH with F101L
VL: B4 VL with A51L

binding result (r murine EphA4 [1]): binds | binding result (r murine EphA7 [2]): binds | binding result (r murine EphA3 [3]): binds
B13: 1A4 Fab (affinity optimized combinatorial variant of Fab20) (Fab, V domains shown)
VH: B4 VH with F64S
VL: B4 VL
